Assay [1] has as its target MBP–APO1 mXT (human) (UniProt P41238). The experiment in a line: SEC; MBP–APO1 fusion proteins; SEC in 20 mM HEPES pH 7.5, 500 mM NaCl, 0.5 mM TCEP. (In general: SEC sorts molecules by how far they enter the pores of the column.)
Assay [2] shares this target. Briefly: SEC-MALS; MBP–APO1 fusions with Leu, Gln or Ala at position 173; SEC and MALS.
In assay [3] the target is MBP–APO1 mXT-173L (human) (UniProt P41238). Described as above.
The target of assay [4] is MBP–APO1 mXT-173Q (human) (UniProt P41238). The assay is described as above.
For the next assay, the target named is MBP–APO1 mSOL (human) (UniProt P41238). The experiment in a line: SEC; MBP–APO1 fusion proteins; SEC in 20 mM HEPES pH 7.5, 500 mM NaCl, 0.5 mM TCEP.

As a reminder, the stoichiometry N is the number of molecules, sites or subunits per partner or assembly.

For “MBP–APO1 mXT (from UniProt P41238 15-236) (enzyme)”, the stoichiometry N with MBP–APO1 mXT (human) [1] and in the assay with MBP–APO1 mXT (human) [2] was 2 each time.

“MBP–APO1 mXT-173L (from UniProt P41238 15-236) (enzyme)” displayed a stoichiometry N in assay [3] of 2. “MBP–APO1 mXT-173Q (from UniProt P41238 15-236) (enzyme)”: the percent in the dimer peak in assay [4] is 1 to 2%. As for “MBP–APO1 mSOL (from UniProt P41238 1-236) (enzyme)”, in the assay with MBP–APO1 mSOL (human), the stoichiometry N amounted to 2.

These data come from article PMC7556403.
